Experiments:
[1] = Analytical size exclusion chromatography; format: physicochemical; conditions: analytical SEC, 20 mM HEPES pH 7.4, 150 mM KCl, 1 mM DTT, 1 mM Mg^2+, 2 mM Ca^2+; CIB2 ∼70 µM (A2 band), Rec ∼80 µM, CaM ∼110 µM
Method: The molecular weight (MW) of the proteins was determined before and after DSBU-modification as previously described[7] in the same buffer (20 mM HEPES, pH 7.5, 1 mM DTT, 1 mM Mg^2+ and 2 mM Ca^2+). […] Standard calibration curve for MW estimation was the same used in our previous study.

Dynamic light scattering = format: physicochemical; conditions: 37 °C, fractions eluted from SEC (CIB2 A2 band), mean ± SEM; n = 15 (CIB2), 18 (Rec), 30 (CaM); 1.8 µM CIB2, 11 µM Rec, 7.4 µM CaM
Method: DLS measurements were performed using Zetasizer Nano-S (Malvern Instruments) at 37 °C by setting the same parameters for hydrodynamic diameter estimation as in ref.[26]. The estimation was based on 15–30 measurements, each consisting of at least 13 repetitions; data in Table 1 are reported as mean ± standard error of mean (SEM). DLS samples for each protein are the same collected in the Analytical Size Exclusion Chromatography.
His-tagged proteins, and then blocked via amine coupling as explained above. Preparation of the […]
approximately 2250 RU of CIB2 immobilized. In binding experiments, peptide concentration was varied in the 230 nM- 30 μM range for both α7B_M, and α7B_C, and experiments were repeated 4 times, both with the HBS buffer described above (containing 1 mM MgCl2) and with further addition of 2 mM CaCl2. Flow rate was set to 20 μl min−1 in all binding experiments, and the dissociation […]
Figure S1: DLS measurements of the SEC collected peaks. CIB2 band A2 (A), Rec (B) and CaM (C). Each data set consisted of 15-30 measurements (grey lines), with 13-15 repetitions each. Colored lines are referred to the average distribution. Temperature was set to 37°C and samples were equilibrated for 2 min before measurements.
Figure S2: Time-resolved proteolysis experiments. […]

Rec = conditions: presence of Ca^2+; cited from earlier work
Excerpt: Solvation of their large hydrophobic surfaces might influence the intera ...

B1: Rec: bovine Rec, Ca^2+-sensor protein (protein, UniProt P21457 2-202, looked up)
Recoverin: GNSKSGALSKEILEELQLNTKFTEEELSSWYQSFLKECPSGRITRQEFQTIYSKFFPEADPKAYAQHVFRSFDANSDGTLDFKEYVIALHMTSAGKTNQKLEWAFSLYDVDGNGTISKNEVLEIVTAIFKMISPEDTKHLPEDENTPEKRAEKIWGFFGKKDDDKLTEKEFIEGTLANKEILRLIQFEPQKVKEKLKEKKL
MW^SEC [1]: 33.5 kDa | DLS Ø hydrodynamic diameter (Dynamic light scattering): 5.0 ± 0.1 nm | concentration above which dimers were isolated (Rec): above 100 μM
